Measurements from US20200078442A1 (ARCH BIOPARTNERS, published 2020).
Ends that are not written are not given here.

T1: LSALT peptide (LSALTPSPSWLKYKAL)
T1 chain: LSALTPSPSWLKYKAL

T2: human DPEP3 (human, UniProt Q9H4B8 36-463)
T2 construct: whole, on cells; Transiently expressed on Cos-1 cells
T2 sequence (looked up): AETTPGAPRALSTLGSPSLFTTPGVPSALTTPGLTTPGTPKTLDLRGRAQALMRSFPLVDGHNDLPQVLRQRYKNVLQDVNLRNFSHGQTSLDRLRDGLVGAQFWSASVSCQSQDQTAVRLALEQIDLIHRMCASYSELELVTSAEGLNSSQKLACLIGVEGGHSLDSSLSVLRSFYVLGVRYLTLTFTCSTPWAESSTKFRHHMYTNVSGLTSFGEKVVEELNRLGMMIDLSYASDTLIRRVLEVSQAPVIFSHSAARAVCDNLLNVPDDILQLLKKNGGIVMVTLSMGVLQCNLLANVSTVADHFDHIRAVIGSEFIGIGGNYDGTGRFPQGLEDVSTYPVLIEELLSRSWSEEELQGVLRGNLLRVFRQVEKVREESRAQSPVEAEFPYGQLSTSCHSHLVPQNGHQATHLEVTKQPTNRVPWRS

T3: human membrane dipeptidase (DPEP-1) (human, UniProt P16444 17-385)
T3 construct: whole, on cells; The background section describes DPEP-1 as a disulfide-linked homodimer; also called renal dipeptidase; dehydropeptidase-1
T3 sequence (looked up): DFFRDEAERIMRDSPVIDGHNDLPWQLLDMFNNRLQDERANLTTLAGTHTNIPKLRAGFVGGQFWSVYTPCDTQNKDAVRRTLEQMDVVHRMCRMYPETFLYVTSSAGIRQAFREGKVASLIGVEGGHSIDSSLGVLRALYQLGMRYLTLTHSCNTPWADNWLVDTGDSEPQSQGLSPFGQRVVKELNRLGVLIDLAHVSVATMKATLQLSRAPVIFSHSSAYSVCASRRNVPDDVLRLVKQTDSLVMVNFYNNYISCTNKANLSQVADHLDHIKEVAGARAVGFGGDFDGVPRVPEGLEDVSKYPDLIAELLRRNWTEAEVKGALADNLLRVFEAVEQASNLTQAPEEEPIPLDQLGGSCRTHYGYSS


Columns and labels:
[1] = target: T1, LSALT peptide (LSALTPSPSWLKYKAL)
[2] = target: T2, human DPEP3; test: immunofluorescence microscopy of Alexa-488 peptide on transfected Cos-1 cells
Method: (§1) Cos-1 cells were transiently transfected with either 3 μg of human DPEP-1, DPEP2, or DPEP3 gene using lipofectamine 2000 (Invitrogen) reagent in OptiMEM medium. 24 hours after transfection, DPEP-1, DPEP2, or DPEP3 expressing cells were re-seeded on collagen coated (neutralized) wells in 24 well plates and allowed to grow for 24 hours at 37° C. 24 hours after seeding, media was removed and cells were washed with PBS. Cells were blocked with FBS/NBSA/Tween in PBS for 30 minutes on ice. Cells were then washed with PBS and incubated with LSALT or GFE-1, conjugated with Alexa-488 (green). After incubation, cells were washed with PBS and stained with DAPI for 5 minutes on ice. Cells were then washed with PBS and fixed using 4% paraformaldehyde and immunofluorescence microscopy was performed to assess binding. Representative photomicrographs are shown for each experimental condition (n=3) in FIG. 6A. Proteins from DPEP-1, DPEP2 and DPEP3 transfected cells were isolated after 48 hours using octyl-glucoside/RIPA lysis buffer and western blot analysis was performed to assess DPEP-1, DPEP2 and DPEP3 protein expression using specific antibodies; DPEP-1 antibody (Sigma), DPEP2 (Abcam) and DPEP3 (Santacruz). Blots were stripped and reprobed with an anti-β-actin.

[3] = target: T4, human DPEP2 (human, UniProt Q9H4A9 33-463); test: as above
T4 construct: whole, on cells; Transiently expressed on Cos-1 cells
Method: as §1

[4] = target: T5, rat membrane dipeptidase (DPEP-1) (rat, UniProt P31430 17-384); test: immunofluorescence microscopy of Alexa-488 peptide on Cos-1 cells transfected with rat DPEP-1
T5 construct: whole, on cells; Transiently expressed on Cos-1 or Cos-7 cells; also called renal rat membrane dipeptidase; rat DPEP-1
Method: Cos-1 cells were transiently transfected with either 3 or 5 μg of membrane dipeptidase (DPEP-1) cDNA corresponding to the rat (Shown in FIG. 5A) or human DPEP-1 (Shown in FIG. 5B) gene using lipofectamine 2000 (Invitrogen) reagent in OptiMEM medium. 24 hours after transfection, DPEP-1 expressing cells were re-seeded on collagen coated (neutralized) wells in 24 well plates and allowed to grow for 24 hours at 37° C. 24 hours after seeding, media was removed and cells were washed with PBS. Cells were blocked with FBS/NBSA/Tween in PBS for 30 minutes on ice. Cells were then washed with PBS and incubated with Alexa-488 (green) conjugated LSALT, GFE-1, control peptide or DPEP-1 antibody ( 1/100) (Sigma) on ice for 30 minutes. […] After incubation, cells were washed with PBS and treated with 10 mg/ml biotin transfer peptide (LSALT, GFE-1 or Control Peptide (KGAL)] for 10 minutes. Cells were then washed with PBS and biotin transfer was enabled by UV activation of the aryl azide groups for 15 minutes at 363 nm. Residual fluid was removed and monolayers were lysed either with octyl-glucoside/RIPA or 8M urea. Isolated supernatants were rotated with 50 μl of neutr-avidin agarose beads at 4° C. for 24 hours. Beads were washed with corresponding buffers, boiled in Laemmli buffer and analyzed by western blot using a DPEP-1 specific antibody (Proteintech).

[5] = target: T3, human membrane dipeptidase (DPEP-1); test: immunofluorescence microscopy of Alexa-488 peptide on Cos-1 cells transfected with human DPEP-1
[6] = target: T5, rat membrane dipeptidase (DPEP-1); test: immunofluorescence microscopy of Alexa-568 peptide on Cos-7 cells transfected with rat DPEP-1
Method: Cos-7 cells were transiently transfected with 5 μg of renal rat membrane dipeptidase (DPEP-1) plasmid using lipofectamine 2000 (Invitrogen) reagent. 48 hours after transfection, media was removed and cells were washed with PBS. Cells were incubated with LSALT conjugated with Alexa-488 (Green), GFE-1 peptide conjugated with Alexa-568 (Red) or control peptide conjugated with Alexa-488 (Green) on ice for 30 minutes. Cells were washed and fixed using 4% paraformaldehyde and immunofluorescence microscopy was performed to assess binding. Shown are representative photomicrographs of each experimental condition (n=2).

T4 sequence (Q9H4A9 33-463): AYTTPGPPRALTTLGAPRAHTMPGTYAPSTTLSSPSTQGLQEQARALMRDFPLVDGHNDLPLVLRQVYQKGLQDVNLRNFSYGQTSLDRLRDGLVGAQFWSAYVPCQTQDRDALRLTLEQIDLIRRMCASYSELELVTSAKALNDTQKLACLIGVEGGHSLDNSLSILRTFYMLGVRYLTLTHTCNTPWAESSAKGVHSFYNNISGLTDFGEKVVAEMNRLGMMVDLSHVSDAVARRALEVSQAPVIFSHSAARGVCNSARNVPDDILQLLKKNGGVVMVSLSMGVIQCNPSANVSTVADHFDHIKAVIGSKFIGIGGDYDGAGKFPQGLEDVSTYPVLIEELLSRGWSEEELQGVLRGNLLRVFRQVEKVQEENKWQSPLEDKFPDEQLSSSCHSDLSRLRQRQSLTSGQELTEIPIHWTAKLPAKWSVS
T5 sequence (P31430 17-384): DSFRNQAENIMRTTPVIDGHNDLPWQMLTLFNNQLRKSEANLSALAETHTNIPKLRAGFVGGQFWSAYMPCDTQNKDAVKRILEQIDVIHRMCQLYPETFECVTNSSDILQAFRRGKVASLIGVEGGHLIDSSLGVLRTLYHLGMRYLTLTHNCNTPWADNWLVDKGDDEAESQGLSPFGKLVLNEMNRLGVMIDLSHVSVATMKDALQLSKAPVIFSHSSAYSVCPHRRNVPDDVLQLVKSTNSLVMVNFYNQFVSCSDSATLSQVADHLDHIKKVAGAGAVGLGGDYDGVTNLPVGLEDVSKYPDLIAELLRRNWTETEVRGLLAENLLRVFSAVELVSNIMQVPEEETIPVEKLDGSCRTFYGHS

Binder	membrane dipeptidase (DPEP-1) enzyme activity (Gly-D-Phe substrate, fluorimetric detection of D-Phe) [1]	binding result [2]	binding result [3]	binding result [4]	binding result [5]	binding result [6]
human membrane dipeptidase (DPEP-1) (protein) DFFRDEAERIMRDSPVIDGHNDLPWQLLDMFNNRLQDERANLTTLAGTHTNIPKLRAGFVGGQFWSVYTPCDTQNKDAVRRTLEQMDVVHRMCRMYPETFLYVTSSAGIRQAFREGKVASLIGVEGGHSIDSSLGVLRALYQLGMRYLTLTHSCNTPWADNWLVDTGDSEPQSQGLSPFGQRVVKELNRLGVLIDLAHVSVATMKATLQLSRAPVIFSHSSAYSVCASRRNVPDDVLRLVKQTDSLVMVNFYNNYISCTNKANLSQVADHLDHIKEVAGARAVGFGGDFDGVPRVPEGLEDVSKYPDLIAELLRRNWTEAEVKGALADNLLRVFEAVEQASNLTQAPEEEPIPLDQLGGSCRTHYGYSS	LSALT does not Inhibit Membrane Dipeptidase (DPEP-1) Enzyme Activity	–	–	–	–	–
LSALTPSPSWLKYKAL (also: Alexa-488 conjugate in binding assays, site not given here, Phage-display derived peptide; also called Metablok) [LSALT peptide (LSALTPSPSWLKYKAL)]	–	no binding	no binding	binds	binds	–
CGFECVRQCPERC (cysteine pairing not given here; also: conjugated with Alexa-488 or Alexa-568, attachment site not given here) [GFE-1 peptide (CGFECVRQCPERC)]	–	no binding	no binding	–	–	binds
